Target: Fc receptor on THP-1 cells
Assay: cell-based or functional assay

In the case of “human IgG1 (heat aggregated, coated on wells) (antibody)”, the TNF secreted by THP-1 cells in wells coated with 10 µg/well heat aggregated protein (ELISA, 24 h) is reported as > 40 ng/well.
